Assay results as given in US20210283168A1, “BETA GLUCAN AND CD40 AGONIST COMBINATION IMMUNOTHERAPY” (HiberCell, Inc., priority 2018, published 2021).
Entries after “also recorded” stand apart in the source; their conditions may differ.

B1: ADC-1013 (antibody, chains of the INN, looked up, V domains shown)
VH: EVQLLESGGGLVQPGGSLRLSCAASGFTFSTYGMHWVRQAPGKGLEWLSYISGGSSYIFYADSVRGRFTISRDNSENALYLQMNSLRAEDTAVYYCARILRGGSGMDLWGQGTLVTVSS
VL: QSVLTQPPSASGTPGQRVTISCTGSSSNIGAGYNVYWYQQLPGTAPKLLIYGNINRPSGVPDRFSGSKSGTSASLAISGLRSEDEADYYCAAWDKSISGLVFGGGTKLTVL

Key:
[1] = tested on: KPC-derived PDAC cell line (7940B, P9); experiment: subcutaneous KPC-derived PDAC tumor model: tumor growth and overall survival; conditions: for anti-tumor activity / impact on tumor growth (in words): mouse, in vivo
CD40 [2] = target: T1, CD40 (Homo sapiens, UniProt P25942); conditions: binding to CD40; ADC-1013: even under acidic conditions (pH 5.4); read-out: binding affinity (Kd); cited from earlier work
CD40 [3] = target: T1, CD40; conditions: cited from earlier work; for dependence on crosslinking for activity: CD40 stimulation
FcR = conditions: cited from earlier work
[4] = target: CD40 ligand interaction with CD40 (Homo sapiens, UniProt P25942); conditions: cited from earlier work
B cell = conditions: cited from earlier work
B cell lymphoma lines = conditions: cited from earlier work
FcgRIIIa = FcgRIIIa (Homo sapiens, UniProt P08637); conditions: non-fucosylated, derived from dacetuzumab; cited from earlier work
[5] = intravenous infusion, more than 400 human subjects; cited from earlier work

T1 sequence (P25942 21-277): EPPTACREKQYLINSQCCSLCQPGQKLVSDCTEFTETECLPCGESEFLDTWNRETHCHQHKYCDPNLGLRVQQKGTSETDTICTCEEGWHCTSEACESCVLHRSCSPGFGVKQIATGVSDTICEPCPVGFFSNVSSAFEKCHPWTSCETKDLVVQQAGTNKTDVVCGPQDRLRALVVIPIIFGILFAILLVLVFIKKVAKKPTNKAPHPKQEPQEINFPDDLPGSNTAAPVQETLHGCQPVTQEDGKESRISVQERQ
Sequence of CD40 ligand interaction with CD40 (P25942 21-277): as above
Sequence of FcgRIIIa (P08637 17-254): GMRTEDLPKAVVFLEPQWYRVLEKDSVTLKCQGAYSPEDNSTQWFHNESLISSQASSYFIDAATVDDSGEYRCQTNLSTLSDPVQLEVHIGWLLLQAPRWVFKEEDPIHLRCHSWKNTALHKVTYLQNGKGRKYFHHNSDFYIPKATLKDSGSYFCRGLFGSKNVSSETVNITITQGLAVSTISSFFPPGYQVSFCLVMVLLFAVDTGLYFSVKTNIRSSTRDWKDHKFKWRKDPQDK

Molecule | anti-tumor activity / impact on tumor growth (in words) [1] | Kd (CD40 [2]) | dependence on crosslinking for activity (CD40 [3]) | ability to block CD40 ligand binding [4] | agonist activity (CD40 [3]) | other results
Nc1ccn([C@@H]2O[C@H](CO)[C@@H](O)C2(F)F)c(=O)n1 [Gemcitabine, reference compound] | no significant impact on tumor growth |  |  |  |  | 
CP-870,893: anti-CD40 IgG2 antibody (Pfizer and VLST) |  | 0.348 nM | can mediate CD40 stimulation in the absence of cross-linking | does not block CD40 ligand interaction with CD40 |  | FcR binding (FcR): poor
Dacetuzumab: humanized IgG1 antibody recognizing CD40 (Seattle Genetics) |  | 1 nM |  | enhances CD40 ligand binding to CD40 | partial agonist | activity in stimulating B cell proliferation (B cell): weak activity; anti-proliferative and pro-apoptotic properties against B cell lymphoma lines (B cell lymphoma lines): potent anti-proliferative and pro-apoptotic properties
SEA-CD40: non-fucosylated humanized IgG1 anti-CD40 antibody derived from dacetuzumab (Seattle Genetics) |  | 1 nM |  |  | improved agonist activity | binding to FcgRIIIa (FcgRIIIa): enhanced binding
β(1,6)-[poly-(1,3)-D-glucopyranosyl]-poly-β(1,3)-D-glucopyranose [IMPRIME PGG] | limited activity as monotherapy; also recorded: minimal activity |  |  |  |  | safety of systemic administration [5]: administered safely; delay in tumor outgrowth / anti-tumor activity, previous experiment ([1]; previous experiment (data not shown)): 3 of 9; delay in tumor outgrowth (mice with delayed tumor growth) ([1]; single dose day 0: FGK45 0.1 mg i.p., IMPRIME PGG 1.2 mg i.v., gemcitabine 120 mg/kg day -2): 1 of 10
B1 |  | 0.01 nM | activity dependent on FcR binding and crosslinking |  |  | 
